Values joined by “and” are separate entries in the source; they are usually repeats but may differ in a detail not shown here. Equal values may be shown once.

The target in assay [1] is p33 protein of citrus tristeza virus (CTV) (citrus tristeza virus). Briefly: SDS-PAGE and western blot of SDS-resistant oligomers; crude extract: leaf discs of agroinfiltrated N. benthamiana macerated directly in SDS loading buffer with 8 M urea; blot with anti-p33 antibody; empty vector as control. (Immunoblotting shows a protein as a band on a membrane.)
For assay [2] the target is unchanged. Description: SDS-PAGE and western blot of SDS-resistant oligomers; p33 immunoprecipitated from N. benthamiana leaf lysate with anti-p33 antibody on protein A magnetic beads, eluted in SDS loading buffer with 100 mM DTT and 8 M urea at 70 °C; blot with anti-p33 antibody.

The stoichiometry N is the number of molecules, sites or subunits per partner or assembly. As for “p33 protein of citrus tristeza virus (CTV) (natural protein)”, the stoichiometry N in assay [1] was 2 and 4; in assay [2] it was 2 and 4.

Source of the values: article PMC12671738.
